From the RNAGym collection of RNA variant scans (doi:10.1073/pnas.2313332121)

B1: TPR t1 (parent)
chain: GACCAAUCUGCCCUCAGAGCUCGAGAACAUCUUCGGAUGCAGAGGAGGCAGGCUUCGGUGGCGCGAUAGCGCCAACGUCCUCAACCUCCAAUGCAUCCCACCACAUGAUGAUGCCUGAAGAGCCUUGGUUUUUUG

Variants of: B1
Assay: polymerase ribozyme fitness, log enrichment relative to wild type (log ratio); higher = more active; in vitro selection for triplet polymerase activity
In short: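 Streptavidin-bead capture of gel-excised extended constructs, followed by RT-PCR, closed a single triplicate in vitro selection round. That round began by annealing PCR-built, transcribed mutant libraries of each subunit of a heterodimeric triplet polymerase ribozyme with a biotinylated primer, the partner subunit and triplets, then incubating them frozen at −7 °C. After Illumina sequencing of inputs and outputs, genotypes needed ≥10 input reads and ≥1 read per output. Fitness is the base-2 logarithm of genotype enrichment over wild-type enrichment, using inverse-variance-weighted replicate averages.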

Variant | polymerase ribozyme fitness (log ratio)
GACCAAUCUGCCCUCAGAGCUCGAGAACAUCUUCGGAUGCAGAGGAGGCAGGCUUCGGUGGCGCGAUAGCGCCAACGUCCUCAACCUUCAAUGCAUCCCACCACAUGAUGAUGCCUGAAGAGCCUUGGCUUUUUG [C88U U129C] | -0.178
GACCAAUCUGCCCUCAGAGCUCGAGAACAUCUUCGGAUGCAGAGGAGGCAGGCUUCGGUGGCGCGAUAGCGCCAACGUCCUCAACCUACAAUGCAUCCCACCACAUGAUGAUGCCUGAAGAGCCUUGGUUUUAUG [C88A U133A] | 0.0129
GACCAAUCUGCCCUCAGAGCUCGAGAACAUCUUCGGAUGCAGAGGAGGCAGGCUUCGGUGGCGCGAUAGCGCCAACGUCCUCAACCCCCAAUGCAUCCCACCACAUGAUGAUGCCUGAAGAGCCUUGGUCUUUUG [U87C U130C] | 0.298
GACCAAUCUGCCCUCAGAGCUCGAGAACAUCUUCGGAUGCAGAGGAGGCAGGCUUCGGUGGCGCGAUAGCGCCAACGUCCUCAACCGCCAUUGCAUCCCACCACAUGAAGAUGCCUGAAGAGCCCUGGUUUUUUG [U87G A91U U109A U125C] | -5.71
GACCAAUCUGCCCUCAGAGCUCGAGAACAUCUUCGGAUGCAGAGGAGGCAGGCUUCGGUGGCGCGAUAGCGCCAACGUCCUCAACCUACAAUGCAUCCCAUCACAUGAUGUUGCCUGAAGAGCCUUGGUUUUUUG [C88A C101U A111U] | -3.57
GACCAAUCUGCCCUCAGAGCUCGAGAACAUCUUCGGAUGCAGAGGAGGCAGGCUUCGGUGGCGCGAUAGCGCCAACGUCCUCAACCUUCAAUGCAUCCCACCACAUGAUGAUGCCUAAAGAGCCUUGGUUUUUUG [C88U G117A] | -1.32
GACCAAUCUGCCCUCAGAGCUCGAGAACAUCUUCGGAUGCAGAGGAGGCAGGCUUCGGUGGCGCGAUAGCGCCAACGUCCUCAACCGCCAAUACAUCCCACCACAUGAUGAAGCCUGAAGAGCCUUGGUUUUAUG [U87G G93A U112A U133A] | 1.36
GACCAAUCUGCCCUCAGAGCUCGAGAACAUCUUCGGAUGCAGAGGAGGCAGGCUUCGGUGGCGCGAUAGCGCCAACGUCCUCAACCUUCAAUGCAUCCCACCACAUGAUGAGGCCUGAAGAGCCUUGGUUUUUUG [C88U U112G] | 0.74
GACCAAUCUGCCCUCAGAGCUCGAGAACAUCUUCGGAUGCAGAGGAGGCAGGCUUCGGUGGCGCGAUAGCGCCAACGUCCUCAACCCCCAAUGCAUCCCACCACAUGAUGAUGCCUGAAGAGCUUUGGUUUUUUG [U87C C124U] | 0.583
GACCAAUCUGCCCUCAGAGCUCGAGAACAUCUUCGGAUGCAGAGGAGGCAGGCUUCGGUGGCGCGAUAGCGCCAACGUCCUCAACCGCCAAUGCAUCCCACAACAUGAUGAUGCCUGAAGAGCGUUGGUUUUUUG [U87G C102A C124G] | 0.127
GACCAAUCUGCCCUCAGAGCUCGAGAACAUCUUCGGAUGCAGAGGAGGCAGGCUUCGGUGGCGCGAUAGCGCCAACGUCCUCAACCUGCAAUGCAUCCCACCAAAUGAUGAGGCCUGAAGAGCCUUGGUUUUUUG [C88G C104A U112G] | -4.26
GACCAAUCUGCCCUCAGAGCUCGAGAACAUCUUCGGAUGCAGAGGAGGCAGGCUUCGGUGGCGCGAUAGCGCCAACGUCCUCAACCUUCAAUGCAUCCCACCACAUGAUCAUGCCUGAAGAGCCUUGGUUUUUUG [C88U G110C] | -3.92
GACCAAUCUGCCCUCAGAGCUCGAGAACAUCUUCGGAUGCAGAGGAGGCAGGCUUCGGUGGCGCGAUAGCGCCAACGUCCUCAACCUGCAAUGCAUCCCACCACAUGAUGAUGCCUGAAAAGCCUUGGUUUUUUG [C88G G120A] | -1.21
GACCAAUCUGCCCUCAGAGCUCGAGAACAUCUUCGGAUGCAGAGGAGGCAGGCUUCGGUGGCGCGAUAGCGCCAACGUCCUCAACCUGCAAUGCAUCCCACCACAUGAUGAUGCCUGAACAGCCUUGGUUUUUUG [C88G G120C] | -0.00486
GACCAAUCUGCCCUCAGAGCUCGAGAACAUCUUCGGAUGCAGAGGAGGCAGGCUUCGGUGGCGCGAUAGCGCCAACGUCCUCAACCCCCAAUGCAUCCCACCACAUGAUGAUGCCUGAAAAGCCUUAGUUUUUUG [U87C G120A G127A] | -1.22
GACCAAUCUGCCCUCAGAGCUCGAGAACAUCUUCGGAUGCAGAGGAGGCAGGCUUCGGUGGCGCGAUAGCGCCAACGUCCUCAACCUGCAAUGCAUCCCACCACAUGAUGAUGCCUGAAAAGCCUUGGAUUUUUG [C88G G120A U129A] | -1.48
GACCAAUCUGCCCUCAGAGCUCGAGAACAUCUUCGGAUGCAGAGGAGGCAGGCUUCGGUGGCGCGAUAGCGCCAACGUCCUCAACCGCCAAUGCAUCCCACCACAUGAUGAUGCCUGAAGCGCCUUGGUUUUUUG [U87G A121C] | 1.82
GACCAAUCUGCCCUCAGAGCUCGAGAACAUCUUCGGAUGCAGAGGAGGCAGGCUUCGGUGGCGCGAUAGCGCCAACGUCCUCAACCUUCAAUGCAUCCCACCACAUGAUUAUGCCUGAAGAGCCGUGGUUUUUUG [C88U G110U U125G] | -2.46
GACCAAUCUGCCCUCAGAGCUCGAGAACAUCUUCGGAUGCAGAGGAGGCAGGCUUCGGUGGCGCGAUAGCGCCAACGUCCUCAACCGCCAAUGCAUCCCACCACAUGAUGAUGCCUGAAGAGCAUUGGUUUUUUG [U87G C124A] | 0.735
GACCAAUCUGCCCUCAGAGCUCGAGAACAUCUUCGGAUGCAGAGGAGGCAGGCUUCGGUGGCGCGAUAGCGCCAACGUCCUCAACCUAGAAUGCAUCCCACCACAUGAUGAUGCCUGAAGAGUCUUGGUUUUUGG [C88A C89G C123U U134G] | 0.911
GACCAAUCUGCCCUCAGAGCUCGAGAACAUCUUCGGAUGCAGAGGAGGCAGGCUUCGGUGGCGCGAUAGCGCCAACGUCCUCAACCUACAAUGCAUUCCACCACAUGAACAUGCCUGAAGAGCCUUGGUUUUUUG [C88A C97U U109A G110C] | -6.36

Variant | polymerase ribozyme fitness (log ratio)
GACCAAUCUGCCCUCAGAGCUCGAGAACAUCUUCGGAUGCAGAGGAGGCAGGCUUCGGUGGCGCGAUAGCGCCAACGUCCUCAACCUUCAAUACAUCCCACCACAUGGUGAUGCUUGUAGAGCCUUGGUUUUUUC [C88U G93A A108G C115U A118U G135C] | -4.45
GACCAAUCUGCCCUCAGAGCUCGAGAACAUCUUCGGAUGCAGAGGAGGCAGGCUUCGGUGGCGCGAUAGCGCCAACGUCCUCAACCUUCAAUACAUCCCACCACAUGAUGAUGCCUGAAGAGCCUUGGUUUUUUG [C88U G93A] | -0.936
GACCAAUCUGCCCUCAGAGCUCGAGAACAUCUUCGGAUGCAGAGGAGGCAGGCUUCGGUGGCGCGAUAGCGCCAACGUCCUCAACCGCCAAUGCAUCCCACCACAUGAUGAUUCCUGAAGAGCCUUGGUUUUUUG [U87G G113U] | -3.33
GACCAAUCUGCCCUCAGAGCUCGAGAACAUCUUCGGAUGCAGAGGAGGCAGGCUUCGGUGGCGCGAUAGCGCCAACGUCCUCAACCCCCAAUGCAUCCCACCACAUUAUGAUGCCUGAAGAGCCUUGGUUUUUUG [U87C G107U] | -4.55
GACCAAUCUGCCCUCAGAGCUCGAGAACAUCUUCGGAUGCAGAGGAGGCAGGCUUCGGUGGCGCGAUAGCGCCAACGUCCUCAACCUGCAAUGCAUCCCACCACAUGAUGAUGCCUGAAGAGCCUUGGUGUUUUG [C88G U130G] | -0.5
GACCAAUCUGCCCUCAGAGCUCGAGAACAUCUUCGGAUGCAGAGGAGGCAGGCUUCGGUGGCGCGAUAGCGCCAACGUCCUCAACCUGCAAUGCAUCCCACCACAUGAUGAUGCCUGAAGAGCCUUGGUCUUUUG [C88G U130C] | -0.362
GACCAAUCUGCCCUCAGAGCUCGAGAACAUCUUCGGAUGCAGAGGAGGCAGGCUUCGGUGGCGCGAUAGCGCCAACGUCCUCAACCUUCAAUGCAUCCCACCACAUGAUGAUGCCUGAAGAGCCGUGGUUUUUUG [C88U U125G] | -1.39
GACCAAUCUGCCCUCAGAGCUCGAGAACAUCUUCGGAUGCAGAGGAGGCAGGCUUCGGUGGCGCGAUAGCGCCAACGUCCUCAACCUUCAAUGCAUCCCACCACAUGAUGAUGCCUGAAGAGACUUGGUUUUUUG [C88U C123A] | 1.43
GACCAAUCUGCCCUCAGAGCUCGAGAACAUCUUCGGAUGCAGAGGAGGCAGGCUUCGGUGGCGCGAUAGCGCCAACGUCCUCAACCUUCAAUGCAUCCCACCACAUGAUGAUGCCUGAAGAGUCUUGGUUUUUUG [C88U C123U] | 0.953
GACCAAUCUGCCCUCAGAGCUCGAGAACAUCUUCGGAUGCAGAGGAGGCAGGCUUCGGUGGCGCGAUAGCGCCAACGUCCUCAACCUUCAAUGCAUCACACCACAGGAUGAUGCCUGAAGAGCCUUGGUUUUUUG [C88U C98A U106G] | -5.05
GACCAAUCUGCCCUCAGAGCUCGAGAACAUCUUCGGAUGCAGAGGAGGCAGGCUUCGGUGGCGCGAUAGCGCCAACGUCCUCAACCUACAAUGCAUCCCACCACAUGAUGAUUCCUGAAGAGCCUUGGUUUUUUG [C88A G113U] | -2.76
GACCAAUCUGCCCUCAGAGCUCGAGAACAUCUUCGGAUGCAGAGGAGGCAGGCUUCGGUGGCGCGAUAGCGCCAACGUCCUCAACCUACAAUGCAUCCCAACACAUGAUGAUGCCUGAAGAGCCUUGGUUUUUUG [C88A C101A] | -1.2
GACCAAUCUGCCCUCAGAGCUCGAGAACAUCUUCGGAUGCAGAGGAGGCAGGCUUCGGUGGCGCGAUAGCGCCAACGUCCUCAACCUGCAAUGCAUCCCACCACAUGAUGAUGCCUCAAGAGCCUUGGUUUUAUG [C88G G117C U133A] | -3.79
GACCAAUCUGCCCUCAGAGCUCGAGAACAUCUUCGGAUGCAGAGGAGGCAGGCUUCGGUGGCGCGAUAGCGCCAACGUCCUCAACCGCCAAUGCAUCCCACCACAUGAUGUUGCCUGAAGAGCCUUGGUUUUUUG [U87G A111U] | -2.77
GACCAAUCUGCCCUCAGAGCUCGAGAACAUCUUCGGAUGCAGAGGAGGCAGGCUUCGGUGGCGCGAUAGCGCCAACGUCCUCAACCUUCAAUGCAUCCCACCACAUGAUGAUGCCUGAAGCGCCUUGGUUUUUUG [C88U A121C] | 1.77
GACCAAUCUGCCCUCAGAGCUCGAGAACAUCUUCGGAUGCAGAGGAGGCAGGCUUCGGUGGCGCGAUAGCGCCAACGUCCUCAACCCCCAAUGCAUCCCACCACAUGAUGAUGCCUGAAUAGCCUUGGUUUUUUG [U87C G120U] | -1.06
GACCAAUCUGCCCUCAGAGCUCGAGAACAUCUUCGGAUGCAGAGGAGGCAGGCUUCGGUGGCGCGAUAGCGCCAACGUCCUCAACCUCAAUUGCAUCCCACCACAUGAUGAUGCCUGAAGAGCCUUGGUUUUUUG [C89A A91U] | -1.18
GACCAAUCUGCCCUCAGAGCUCGAGAACAUCUUCGGAUGCAGAGGAGGCAGGCUUCGGUGGCGCGAUAGCGCCAACGUCCUCAACCUACAAUGCAUCCCACCACAUGAUGAUGCCUGAAGCGCCUUGGUUUUUUG [C88A A121C] | 1.66
GACCAAUCUGCCCUCAGAGCUCGAGAACAUCUUCGGAUGCAGAGGAGGCAGGCUUCGGUGGCGCGAUAGCGCCAACGUCCUCAACCUUCAAUGCAUCCCACCACAUGAUGAUGCCUGAAGAGCAUUGGUUUUUUG [C88U C124A] | 1.47
GACCAAUCUGCCCUCAGAGCUCGAGAACAUCUUCGGAUGCAGAGGAGGCAGGCUUCGGUGGCGCGAUAGCGCCAACGUCCUCAACCUUCAAUGCAUCCCACCACAUGAUGAUGCCUGAAUAGCCUUGGUUUCUUG [C88U G120U U132C] | 0.106
GACCAAUCUGCCCUCAGAGCUCGAGAACAUCUUCGGAUGCAGAGGAGGCAGGCUUCGGUGGCGCGAUAGCGCCAACGUCCUCAACCUACAAUGCAUCCCACCACAUGAUGAUGCCUGAAGAGUCUUGGUUUUUUG [C88A C123U] | 1.08
